Assay: soluble on expression in E. coli; label from the status in PepcDB or PDB records

Sequence | soluble on expression in E. coli
MGSDKIHHHHHHMKLKQSESFKMDAFSMRVGDIEGVELDRLHALSLSVGWPHRAEDWQFLRNVGRGVVVLDEIGRVQGSAMWFEHGADFATVGMVITSPRLQTLGAAQWLMKRIFDKVGGRDLRLNATRAARRLYLSLDFLPEKTVYQCQGIARLETTGGPTDLRDVRALDPSDIPAAIALDAAGFGVRRAALVEKLFVHSAGYGLFKHDKLNAFALCRPFGRGHVVGPVVAESDADAVAVVRPHVADNSGSFLRIDTHMANGDFAAFLSHSGMTVFDTVLTMSMGKRLADFAVNGTVAPVTYALASQTLG | not soluble
MGSDKIHHHHHHMFSIAIQQQQYKTYILSDETTGSQLEVVPERGGIITRWRVKGEEILYLDAERFTHPDLSVRGGVPILFPICGNLPDNSYTLNGQQYTLKQHGFARDLPWEVVEQTTKDTAALTLVLRSNEQTKAVYPFDFQLVFTYVLQGNTLEIRQEYQNLSSTQLPFSAGFHPYFLTGDKNQLEFDIPSQEYQDQQTKEVHPFNGNFDFNRDEMDFAFGHITSQSASVIDRNRQFKLTLDADDIFSMLVFWTLKGKEFYCLEPWSAPRNSLNTGEKLTVLEPGTSYKASVRLSASFF | not soluble
DPRLARLLGLHTQSRSAIVQALWQYVKTNRLQDSHDKEYINGDKYFQQIFDCPRLKFSEIPQRLTALLLP | soluble
MDTEMLIDKYQLNDSEAAVLRFMDKNRDCLKSLGIREVAKASYVSTTAIINMAKKIGYSGYSELVFAYGNKHSSISFPENFSNEEKDEFIRLLSRYREKRIMVLGSGFSQNIANHFSEMLNLYGFRATANSHLEFLRENVEKDVLIFIVSNSGDTLRLAELVKLAKNHHIDLIAFVGEKKSKIGQLATLTISTETYNPQVVSEYQPNLFFGTALNQFELLLSEALKSIFI | not soluble
MGSDKIHHHHHHMSKLKDYNIDKVIIFNNLSTKTKNQLKEKVKLKRLQKKEILFYEKDSLDSVYILLEGKVSIFKISENGERKVIFILNSGEVINDITLDASKNSTVGCEAFENSIVAYYSIEEFLEIMQNDFQLTKDIISYMERRIRRLYRQLKNSISIKVDKKLAAKLYRLSREFGVCCGEWTLLNVNITVTYLADMLGCKRETVSRMIKVLQKEELIKIDNKGFYVKETELSRYFKNN | not soluble
MSCQGPVCTNLGLKPGQRLTVKGIIAPNAKSFVMNLGKDSTHLGLHFNPRFDAHGDVNLIVCNSKKMEEWGTEQRETVFPFQKGAPIEITFSINPSDLTVHLPGHQFSFPNRLGLSVFDYFDTHGDFTLRSVSWE | soluble
TSQIRQNYSTEVEAAVNRLVNLHLRASYTYLSLGFFFDRDDVALEGVGHFFRELAEEKREGAERLLEFQNDRGGRALFQDVQKPSQDEWGKTQEAMEAALAMEKNLNQALLDLHALGSARADPHLCDFLESHYLDKEVKLIKKMGNHLTNLRRVAGPQPAQTGAPQGSLGEYLFERLTLKHD | soluble
MNNILNQIKKEVNMDLLNGLWPGFKRAAFALYDDEHVYVFHHPLFLKDNDEYRVLKWEEQFKGDTCILFKDYPTAIVNMNRYKDYASLLAIVVHELFHCYQYLNKESRFPNESLGFQYPIIEENIQLRNKERICLYDAVHCKSQAEKNNYIKQFIELREQRASVMGEAFITYEYMVESIEGPAWYVEMNAYNTVCKSDESDTLRKYSGLILDVYDANCNMRKSCYSSGMLLCLLLDEILPEWKISFFNSDKSLYAFLKQNINVDLSLNNEITISKETKQILHFVQNERDKEIKQFYGEEGYDLYIVGDIKLNSFNPMNVKLNGNKVLHKTFLSVSIHNKTYMINQPVLASFEEDFKNMTQVHIIMNEKPIETKNG | not soluble
GAMEGIKVFLHERELWLKFHEVGTEMIITKAGRRMFPSYKVKVTGLNPKTKYILLMDIVPADDHRYKFADNKWSVTGKAEPAMPGRLYVHPDSPATGAHWMRQLVSFQKLKLTNNHLDPFGHIILNSMHKYQPRLHIVKADENNGFGSKNTAFCTHVFPETAFIAVTSYQNHKITQLKIENNPFAKGFRGSDDMELHRMSRMQ | soluble
MGSDKIHHHHHHMNYTNEVAKMTCVAKGPNHGPAPIPEEGKWVSAKEIKDISGLTHGVGRCAPQQGACKLTLNVKEGIIQEALVETIGCSGMTHSAAMAAEILSGKTILEALNTDLVCDAINTAMRELFLQIVYGRTQTAFSEGGLPVGAGLEDLGKGHRSQVGTMYSSAAKGPRYLEMVEGYVTKTGLDENNEIIGYEFINFGKMMDMIKQGMDANEAMKKATGNYGRFADAVKVIDPREE | not soluble
MPIVMARDLEETASSSEDEEVISQEDHPCIMWTGGCRRIPVLVFHADAILTKDNNIRVIGERYHLSYKIVRTDSRLVRSILTAHGFHEVHPSSTDYNLMWTGSHLKPFLLRTLSEAQKVNHFPRSYELTRKDRLYKNIIRMQHTHGFKAFHILPQTFLLPAEYAEFCNSYSKDRGPWIVKPVASSRGRGVYLINNPNQISLEDNILVSRYINNPLLIDDFKFDMRLYVLVTSYDPLVIYLYEEGLARKCNWKMGNTMDKRRLPIYVQVL | not soluble
MKIMIIGATGMAGQALVTTALNRGHQVVAVARSAEKLATLPSNPNLTSIVRDAFNLTTTDLSAVDAVVDAFATAPDHAYLHVDLATHLISQLRETTTPRVAFILGAGSLTTGDDAHLFVHDLEQDPHAASFISVPQNQLKELTFLRDVDNVNWFGVSPAADFHPGEAQPALLGTDTLLFNDQQQSGTSAGTMAVAILDELENPKHHQTRFTVADKLEHHHHHH | soluble
MILIIYAHPYPHHSHANKRMLEQAGTLENVEIRSLYHLYPDFNIDVAAEQEALSRASLIVWQHPMQWYSVPPLLKLWMDKVLTHGWAYGHGGTALHGKHLLWAVTTGGGENHFAIGSHPGFDVLSQPLQATALYCGLKWLSPFAMHCTFICDDDTLQAQARQYKQRLLAWQEVNHG | not soluble
MSLCGLLGILTANGNAEAFVPALERALPCMRHRGPDDAGTWHDADAAFGFNRLSIIDIAHSHQPLRWGPADEPDRYAMTFNGEIYNYVELRKELSDLGYAFNTSGDGEPIVVGFHHWGESVVEHLRGMFGIAIWDTKEKSLFLARDQFGIKPLFYATTEHGTVFSSEKKTILEMAEEMNLDLGLDKRTIEHYVDLQYVPEPDTLHAQISRLESGCTATVRPGGKLEQKRYFKPQFPVQKVVKGKEQDLFDRIAQVLEDSVEKHMRADVTVGSFLSGGIDSTAIAALAKRHNPDLLTFTTGFEREGYSEVDVAAESAAAIGAEHIVKIVSPEEYANAIPKIMWYLDDPVADPSLVPLYFVAAEARKHVKVVLSGEGADELFGGYTIYKEPLSLAPFEKIPSPLRKGLGKLSKVLPDGMKGKSLLERGSMTMEERYYGNARSFNFEQMQRVIPWAKREWDHREVTAPIYAQSRNFDPVARMQHLDLFTWMRGDILVKADKINMANSLELRVPFLDKEVFKVAETIPYDLKIANGTTKYALRRALEQIVPPHVLHRKKLGFPVPMRHWLAGDELFGWAQDTIKESGTEDIFNKQAVLDMLNEHRDGVSDHSRRLWTVLSFMVWHGIFVENRIDPQIEDRSYPVEEGHHHHHH | soluble
MDEKIAPHLEELTRALGDLEKTGIRAEFYKLLAFRVSPEVAKETILRKFGGKRKILKVKDLSASLKNFEITGRILDMGEKALRPQEGVQDGPSKLYTGILADETGSVMFSSWKELPGSIGDVINIKNAYTRLWQNRIRLSIGEQSLVSGVSDSSLPGLSELSKTPLKKLIEIGSADFSVSTTACVLQLSHREVPVRGKQSKVISGVLADETARLPFTAWVELPGIDIGSIIRIEGAQIRMFRGMPSINFISSTRISPVPAEEAEKLAFTFESSSKDPSPIKIEEIASRDSMFDVVTAGNIVSVRPGSGIISRCPECSRVIQKSNCRVHGRVEGIRDMRIKAVLDDGTGAMSVMFPRELAEIIYGKTLEEAEQLMFSDISKDAVYEDLRRFLTGRYLAVRGNSSNGEYGASFVAENAWVPEDDLAVRVVELLRRLGPDEGEQSSEVSREGISFALEHHHHHH | soluble
MGSSHHHHHHGKTIFVIVPTNEEQVAFLEALAKQDELNFDWQNPPTEPGQPVVILIPSDMVEWFLEMLKAKGIPFTVYVEEGGSENLYFQGGGGGGSDGAIVPREGSPQSISEELERRRSEARNLELRVSRKEAELQRAKEEQELLKEMRTVNEMIIRKKERQLSEGVANGVKISPESLAELNALGDALRLENLKTVELQREADVTSHQMEEVERSLENTEKQLLEAKRSTGWDVDRNSARTETAMESAFKEKKRLLSSLTSEQRTLSELSERLKQHAEECQAKVDAAEGMDERFAEAEEQLRQANARYRELIEEVMSNERIQKKTERVLTVANTQDKYKCIRQLEGEKRALHNDLSKLRETNVSNSRSILSLEVRLRQLETRLEAVNGFLREVFAEVEDDEPMDNVPEGAVEVPLALFEELSAALELSRETVVQRDDQLDEHDCKIEQMERKVVILQNAIASRAVSAQVQARGRDTQQRSMYANHSRRRSQLRTERDQLAVENTVLRNRLALL | not soluble
MLIIETLPLLRQQIRRLRMEGKRVALVPTMGNLHDGHMKLVDEAKARADVVVVSIFVNPMQFDRPEDLARYPRTLQEDCEKLNKRKVDLVFAPSVKEIYPNGTETHTYVDVPGLSTMLEGASRPGHFRGVSTIVSKLFNLVQPDIACFGEKDFQQLALIRKMVADMGFDIEIVGVPIMRAKDGLALSSRNGYLTAEQRKIAPGLYKVLSSIADKLQAGERDLDEIITIAGQELNEKGFRADDIQIRDADTLLEVSETSKRAVILVAAWLGDARLIDNKMVELA | soluble
MSLRNVLQDYLDEHSFRVVVKKKKNYLTYEGLQDRYAYILKSGIIKTSVISKDGREFNLRYINNLEIVSLLRDEYSEFIDAPFNIRIESPQAELYQIDRVQFWRDINNSKDLQMYVKEYYRDRLMHSMKKMQQMLMNGKFGAVCTQIYEMYDSFGVETEEGILIDFVVTNEEIAHFCGITSASSVNRMMQQLKELGAIELRNRKILIKDLDMIRDNEGGSHHHHHH | soluble
MSDNAQLSGLCDRFRGFYPVVIDVETAGFNAKTDALLEIAAITLKMDEQGWLMPDMTLHFHVEPFAGANLQPEALAFNGIDPSNPLRGAVSEYEALHAIFKMVRKGIKDSGCSRAIMVAHNATFDHSFMMAAAERASLKRNPFHPFVTFDTAALSGLALGQTVLSKACLAAGMEFDGEKAHSALYDTERTAVLFCEIVNRWKRLGGWPLPLPTDK | not soluble
STATIDRRLSTLNPNAPVFDPVEFREVEDFSPKWWDLVTTSKWFRDFWLSANSENEFLGGDDFSVMEEEFEEMIASSDGGSMADTVTEADVASYLKMLLNIAESTKEKIYRSKVSSCSPKYNQKKYMNPNFNCRRNHHIYQPR | soluble
MAAHSIFTTTSTTNSFLYPISSSSSSPNINSSFLGVSLNVNAKFGQSLTLYAVTTPKPLTVFAATKKAVAVLKGNSNVEGVVTLSQDDDGPTTVNVRITGLAPGLHGFHLHEYGDTTNGCMSTGAHFNPNKLTHGAPGDEIRHAGDLGNIVANADGVAEVTLVDNQIPLTGPNSVVGRALVVHELEDDLGKGGHELSLTTGNAGGRLACGVVGLTPI | soluble
MYKDYPAAYQVSKGAALQVDTAFYERLRANAQQRTLVEQFEVPIRTGRAWKVKAGQVFRVTTPAGPQVGDFNVWNAHDPRERLWAARTRQLQGAHVSTHDRLWSNLPFLRPLVTITDDSLASYGIDEHGGRLHDLLGTRCDPYVKKMLTGEDFHHHCHSNLTRAVLPHGLTEFDVHDVLNIFQCTGLNHDDMYFMKACPAQKGDYLEFFAEIDLLCALSTCPGGDLSLPMWGPDAQDPLSVCRPLGVEIYNLDAALLEGWQSPERAAYNGLHGLQIAKVDWEKLEHHHHHH | not soluble
RAKKETTMTDVRIQALHFDATDQLKDFVQKKISKLNRLSDGITGAEVVLKLVKPETVQNKEASIRLYIPGDDLFAEKIADTFEEAIDLTVDALKRQIEKRKEQRK | not soluble

From the DeepSol protein solubility set
